This test deals with mCherry-TRPV5 (rabbit) (UniProt Q9XSM3). The test can be described thus: single molecule photobleaching counting.
Sequence of mCherry-TRPV5 (rabbit) (Q9XSM3 whole entry): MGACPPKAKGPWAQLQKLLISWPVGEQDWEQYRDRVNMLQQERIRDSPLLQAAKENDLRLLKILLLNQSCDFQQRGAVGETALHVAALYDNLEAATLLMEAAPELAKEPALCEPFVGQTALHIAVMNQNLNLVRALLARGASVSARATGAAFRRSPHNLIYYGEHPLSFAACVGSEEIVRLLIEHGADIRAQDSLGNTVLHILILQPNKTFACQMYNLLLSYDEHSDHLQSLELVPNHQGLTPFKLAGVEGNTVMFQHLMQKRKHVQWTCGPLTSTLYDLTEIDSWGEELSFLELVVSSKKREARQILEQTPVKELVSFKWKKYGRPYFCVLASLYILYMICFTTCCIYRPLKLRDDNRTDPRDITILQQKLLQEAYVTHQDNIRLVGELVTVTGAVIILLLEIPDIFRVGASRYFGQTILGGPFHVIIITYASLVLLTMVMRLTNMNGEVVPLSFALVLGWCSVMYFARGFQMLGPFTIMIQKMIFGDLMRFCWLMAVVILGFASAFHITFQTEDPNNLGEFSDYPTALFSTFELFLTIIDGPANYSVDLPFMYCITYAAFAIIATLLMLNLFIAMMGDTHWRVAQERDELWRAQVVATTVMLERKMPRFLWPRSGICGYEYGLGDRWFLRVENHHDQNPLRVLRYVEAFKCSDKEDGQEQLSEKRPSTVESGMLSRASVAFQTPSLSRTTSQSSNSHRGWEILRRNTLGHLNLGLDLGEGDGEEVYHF

The substance “CaM-eGFP (from UniProt P0DP29 1-149) (natural protein)” gave a stoichiometry N (CaM molecules per TRPV5 tetramer) of 2.

The values above are taken from article doi:10.1101/2021.02.16.431366.
